Measurements as given in publication doi:10.1101/2025.04.02.646877 (bioRxiv, 2025).

B1: lac repressor (LacI), functional dimeric form (residues 1-331) (domain or fragment, E. coli, UniProt P03023 1-331, looked up)
chain: MKPVTLYDVAEYAGVSYQTVSRVVNQASHVSAKTREKVEAAMAELNYIPNRVAQQLAGKQSLLIGVATSSLALHAPSQIVAAIKSRADQLGASVVVSMVERSGVEACKAAVHNLLAQRVSGLIINYPLDDQDAIAVEAACTNVPALFLDVSDQTPINSIIFSHEDGTRLGVEHLVALGHQQIALLAGPLSSVSARLRLAGWHKYLTRNQIQPIAEREGDWSAMSGFQQTMQMLNEGIVPTAMLVANDQMALGAMRAITESGLRVGADISVVGYDDTEDSSCYIPPLTTIKQDFRLLGQTSVDRLLQLSQGQAVKGNQLLPVSLVKRKTTLA
B2: ribose repressor (RbsR) (natural protein, E. coli, UniProt P0ACQ0 1-330, looked up)
chain: MATMKDVARLAGVSTSTVSHVINKDRFVSEAITAKVEAAIKELNYAPSALARSLKLNQTHTIGMLITASTNPFYSELVRGVERSCFERGYSLVLCNTEGDEQRMNRNLETLMQKRVDGLLLLCTETHQPSREIMQRYPTVPTVMMDWAPFDGDSDLIQDNSLLGGDLATQYLIDKGHTRIACITGPLDKTPARLRLEGYRAAMKRAGLNIPDGYEVTGDFEFNGGFDAMRQLLSHPLRPQAVFTGNDAMAVGVYQALYQAELQVPQDIAVIGYDDIELASFMTPPLTTIHQPKDELGELAIDVLIHRITQPTLQQQRLQLTPILMERGSA

Target: the molecule itself
Experiment: SEC-MALS

| Protein | stoichiometry N |
| --- | --- |
| B1 | 2 |
| B2 | 2 |
